Experiments:
FcgRIIB = FcgRIIB (UniProt P31994); experiment: FACS
FcgRIIIA = FcgRIIIA (UniProt P08637); experiment: FACS
Chain of FcgRIIIA (P08637 17-254): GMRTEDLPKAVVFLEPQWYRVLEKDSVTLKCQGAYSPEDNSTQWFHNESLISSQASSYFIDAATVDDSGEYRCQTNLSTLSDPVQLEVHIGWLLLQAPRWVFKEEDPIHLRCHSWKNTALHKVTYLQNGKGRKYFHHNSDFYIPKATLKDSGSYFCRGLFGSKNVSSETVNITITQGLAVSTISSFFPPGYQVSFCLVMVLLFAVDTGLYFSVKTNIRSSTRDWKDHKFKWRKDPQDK

Chain of FcgRIIB (P31994 43-310): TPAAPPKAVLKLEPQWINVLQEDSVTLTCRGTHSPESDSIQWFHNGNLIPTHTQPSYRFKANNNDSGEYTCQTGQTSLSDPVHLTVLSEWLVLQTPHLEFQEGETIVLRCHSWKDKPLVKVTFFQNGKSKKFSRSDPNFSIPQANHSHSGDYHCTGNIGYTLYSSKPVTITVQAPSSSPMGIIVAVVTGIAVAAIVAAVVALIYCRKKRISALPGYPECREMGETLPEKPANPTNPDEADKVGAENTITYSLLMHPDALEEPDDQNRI

| EC50 (FcgRIIB) [nM] | EC50 (FcgRIIIA) [nM] | Substance |
| --- | --- | --- |
| 2 | 3.67 | N297A |
| 0.64 | 1.24 | S267E |
| 0.32 | 2.31 | SELF |
| 1.85 | 2.51 | L328F |

Source: US20140377253A1
